Data reported in doi:10.1101/197848.

Molecular target: Xenopus Smc3R626C-Halo (subunit of the hinge-substituted recombinant tetramer, not crosslinked) (Xenopus) (UniProt O93309)
Test: cross-linking

crosslinking efficiency: 40%
Substance: Xenopus Smc1D566C (subunit of the hinge-substituted recombinant tetramer) (from UniProt O93308 1-1232) (natural protein)
